Measurements as given in patent US20230056815A1 (VIELA BIO, published 2023).
Numbering of substitutions follows the chain as printed.

B1: CAT8 antibody (IgG1 TM format) (antibody, V domains shown)
VH: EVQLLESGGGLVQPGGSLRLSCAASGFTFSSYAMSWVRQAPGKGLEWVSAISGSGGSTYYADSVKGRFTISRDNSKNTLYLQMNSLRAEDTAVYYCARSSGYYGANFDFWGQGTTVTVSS
VL: QSVLTQPPSASGTPGQRVAISCSGSSSNIGSGYVYWYQQVPGTAPTLLIHRNNQRPSGVPDRFSGSKSGTSASLAISGLRSEDEADYYCAAWDDSLSGYVFGTGTKVTV
notes: Human antibody from phage display
B2: CAT8 Fab (Fab, V domains shown)
VH: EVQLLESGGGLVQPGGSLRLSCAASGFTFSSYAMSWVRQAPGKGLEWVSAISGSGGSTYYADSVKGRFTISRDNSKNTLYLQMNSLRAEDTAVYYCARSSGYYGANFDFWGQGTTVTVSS
VL: B1 VL
B3: Dyax5 antibody (IgG1 TM format) (antibody, V domains shown)
VH: EVQLLESGGGLVQPGGSLRLSCAASGFTFSSYIMVWVRQAPGKGLEWVSSIYSSGGSTSYADSVKGRFTISRDNSKNTLYLQMNSLRAEDTAVYYCTRYSRWFGQLGFYSHYAMDVWSQGTTVTVSS
VL: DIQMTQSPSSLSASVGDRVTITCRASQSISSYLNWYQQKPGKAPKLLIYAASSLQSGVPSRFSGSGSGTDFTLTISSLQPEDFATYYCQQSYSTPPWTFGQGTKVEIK
B4: Dyax5 Fab (Fab, V domains shown)
VH: B3 VH
VL: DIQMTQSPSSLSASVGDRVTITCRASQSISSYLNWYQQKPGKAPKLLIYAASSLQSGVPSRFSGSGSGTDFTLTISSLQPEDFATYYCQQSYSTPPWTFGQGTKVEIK
B5: CAT26 antibody (IgG1 TM format) (antibody, V domains shown)
VH: EVQLLESGGGLVQPGGSLRLSCAASGFTFSSYAVSWVRQAPGKGLEWVSAISGSGGSTYYADSVKGRFTISRDNSKNTLYLQMNSLRAEDTAVYYCVKDAYGSSWYFYYFDYWGQGTMVTVSS
VL: QSVLTQPPSASGTPGQRVTISCSGSSSNIGINPVNWYQQLPGTAPKVLIYSDKYRPSGVADRFSGSKSGTSASLAISGLQSEDEADYFCAAWDDSLNGRVFGTGTKLTVL
B6: CAT26 Fab (Fab, V domains shown)
VH: B5 VH
VL: B5 VL
B7: AM40 (MEDI1116) antibody (antibody, V domains shown)
VH: QVQLVQSGAEVKKPGSSVKVSCKASGGTFSSYALSWVRQAPGQGLEWMGTRPPTSRTASYAQKFQGRVTITVDESTSTGYMELSSLRSEDTAVYYCASNDFVYGSYRFWGQGTTVTVSS
VL: NFMLTQPHSVSESPGKTVTISCTRTSGNIAGYFVQWYQQRPGSSPTTVIYEDYQRPSGVPDRFSGSIDSSSNSASLTISGLKTEDEADYYCQSYDDYRRAAFGGGTKLTVLG
B8: SC4017 antibody (antibody, V domains shown)
VH: B7 VH
VL: B7 VL with N28W
B9: Dyax3 antibody (IgG1 TM format) (antibody, V domains shown)
VH: EVQLLESGGGLVQPGGSLRLSCAASGFTFSMYEMRWVRQAPGKGLEWVSVIPSGGKTFYADSVKGRFTISRDNSKNTLYLQMNSLRAEDTAVYYCARYSRWFGQLGFYSHYAMDVWSQGTTVTVSS
VL: DIQMTQSPSSLSASVGDRVAITCRASQSIDTYLNWYQQKPGKAPKLLIYAASKLEDGVPSRFSGSGTGTDFTLTIRSLQPEDFASYFCQQSYSSPGITFGPGTKVEIK
notes: also called DTAX3
B10: Dyax3 Fab (Fab, V domains shown)
VH: B9 VH
VL: B9 VL

Assays:
[1] = biological target: T1, recombinant human stem cell factor (SCF) (human, UniProt P21583 26-189); test: ELISA on coated recombinant human SCF
T1 construct: also called huSCF; KIT-ligand
T1 sequence (P21583 26-189 limits assumed): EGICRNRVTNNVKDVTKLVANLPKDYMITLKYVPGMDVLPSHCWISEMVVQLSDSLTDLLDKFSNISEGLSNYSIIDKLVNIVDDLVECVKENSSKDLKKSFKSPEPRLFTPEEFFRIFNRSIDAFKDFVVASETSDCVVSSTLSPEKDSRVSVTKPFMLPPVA
Protocol: (§1) To test this, an ELISA plate was coated with 2 µg of recombinant human SCF or CSF1. After washing, the plate was blocked with 3% milk in Tris-Phosphate Buffered Saline (TPBS) and lead antibodies were added in serial (×2) dilution, starting at 50 µg/ml. After incubation, unbound antibody was removed by washing and bound antibody was detected using anti-human IgG-HRP in combination with TMB substrate for color development. Commercially available goat anti-SCF pAb and mouse anti-CSF1 mAb were used as positive binding controls.

[2] = biological target: T2, recombinant human colony stimulating factor 1 (CSF1) (human, UniProt P09603 33-190, limits assumed); test: ELISA on coated recombinant human CSF1
T2 construct: also called huCSF1; huCSF
T2 sequence (looked up): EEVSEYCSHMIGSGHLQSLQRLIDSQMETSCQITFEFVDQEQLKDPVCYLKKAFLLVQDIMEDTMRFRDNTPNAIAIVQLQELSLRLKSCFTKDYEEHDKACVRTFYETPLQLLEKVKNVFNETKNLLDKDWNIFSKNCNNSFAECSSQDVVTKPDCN
Protocol: as §1

[3] = biological target: T3, human FLT3L on the cell surface (human, UniProt P49771 27-235); test: flow cytometry on CHO cells expressing full-length human FLT3L, PE anti-hu IgG
T3 construct: whole, on cells; The assay field of each row says which cells carried it; also called cell-surface FLT3L; huFLT3L-expressing CHO cells
T3 sequence (looked up): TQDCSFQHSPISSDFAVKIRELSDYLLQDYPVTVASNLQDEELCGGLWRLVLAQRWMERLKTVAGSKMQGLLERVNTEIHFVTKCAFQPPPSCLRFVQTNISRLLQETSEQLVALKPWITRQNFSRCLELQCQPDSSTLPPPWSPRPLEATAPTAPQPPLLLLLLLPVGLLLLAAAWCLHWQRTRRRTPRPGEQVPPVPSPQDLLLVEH
Protocol: (§2) Consistent with this, cell surface binding to human, cyno, and mouse FLT3L was evaluated by transfecting Chinese hamster ovary (CHO) cells with the respective full-length protein for each species. Candidate clones were incubated with FLT3L-expressing cell lines for 1 hour at 4° C. before being washed twice to remove unbound antibody. Cells were then incubated with PE-labeled goat anti-hu IgG secondary detection pAb to quantitate bound antibody which was measured by flow cytometric analysis of PE signal. The huFLT3-Fc construct, on a hu IgG backbone, was used as a positive control reagent for FLT3L expression as it cross reacts with cyno and mouse, in addition to human ligand.
(§3) As differences were apparent in the degree of receptor occupancy for each clone, both EC50 and max occupancy were noted (expressed as percent relative to FLT3-Fc) and taken into account in the final evaluation. Results are shown in Table 4 for human, cyno, and mouse FLT3L expressed in CHO cells.

[4] = biological target: T4, human soluble FLT3L (recombinant huFLT3L) (human, UniProt P49771 27-184); test: cell-based or functional assay
T4 sequence (looked up): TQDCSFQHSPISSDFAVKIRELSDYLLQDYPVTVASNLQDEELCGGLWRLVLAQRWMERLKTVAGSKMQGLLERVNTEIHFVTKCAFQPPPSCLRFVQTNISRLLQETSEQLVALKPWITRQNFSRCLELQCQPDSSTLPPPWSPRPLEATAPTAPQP

[5] = biological target: cynomolgus monkey soluble FLT3L (cynomolgus monkey); test: cell-based or functional assay
mouse FLT3L on CHO cells [6] = biological target: T5, mouse FLT3L on CHO cells (mouse, UniProt P49772 27-232); test: flow cytometry on CHO cells expressing mouse FLT3L, anti-hu IgG-PE detection
T5 construct: whole, on cells; also called cell surface mouse FLT3L
T5 sequence (looked up): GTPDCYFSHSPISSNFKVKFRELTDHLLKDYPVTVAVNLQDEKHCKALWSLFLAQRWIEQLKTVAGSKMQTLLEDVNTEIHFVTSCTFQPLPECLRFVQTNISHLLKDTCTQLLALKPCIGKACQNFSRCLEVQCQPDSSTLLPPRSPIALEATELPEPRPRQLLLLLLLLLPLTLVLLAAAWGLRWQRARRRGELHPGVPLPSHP
Protocol: as §2

[7] = biological target: T6, cynomolgus monkey FLT3L on CHO cells (cynomolgus monkey); test: flow cytometry on CHO cells expressing full-length cyno FLT3L, PE anti-hu IgG
T6 construct: whole, on cells; also called cell surface cyno FLT3L
Protocol: as §2, §3

[8] = biological target: T4, human soluble FLT3L (recombinant …); test: Biacore, Fab
[9] = biological target: T4, human soluble FLT3L (recombinant …); test: Biacore, Fab, kinetic (koff/kon)
mouse soluble FLT3L = biological target: T7, mouse soluble FLT3L (mouse, UniProt P49772 27-189); test: cell-based or functional assay
T7 sequence (looked up): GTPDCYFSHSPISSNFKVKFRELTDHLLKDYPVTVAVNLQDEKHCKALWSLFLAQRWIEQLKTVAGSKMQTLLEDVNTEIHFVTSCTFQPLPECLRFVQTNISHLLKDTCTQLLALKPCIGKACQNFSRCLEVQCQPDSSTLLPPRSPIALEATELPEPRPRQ

mouse FLT3L on CHO cells [10] = biological target: T5, mouse FLT3L on CHO cells; test: flow cytometry on CHO cells expressing full-length mouse FLT3L, PE anti-hu IgG
Protocol: as §2, §3

[11] = biological target: T4, human soluble FLT3L (recombinant …); test: cell-based or functional assay; remark: listed apart in the source
[12] = biological target: T4, human soluble FLT3L (recombinant …); test: Biacore
[13] = biological target: T8, cynomolgus monkey soluble FLT3L (cynomolgus monkey); test: Biacore
T8 construct: extracellular domain; also called cyno sFLT3L; cyno FLT3L

Binder	EC50 [3] [nM]	maximum occupancy (% relative to FLT3-Fc) [3] [%]	IC50 (nM), inhibition of FLT3 downregulation on RS4;11 cells [4] [nM]	IC50 (nM), inhibition of FLT3 downregulation on RS4;11 cells [5] [nM]	EC50 [7] [nM]	maximum occupancy (% relative to FLT3-Fc) [7] [%]	koff [8] [s⁻¹]	kon [8] [M⁻¹ s⁻¹]	Kd [9] [nM]	also measured
B1	0.08	60	43.5	3000	9	32	–	–	–	binding result [1]: no binding (tested: about 0.3 uM); binding result [2]: no binding (tested: about 0.3 uM); binding result (mouse FLT3L on CHO cells [6]): no binding (tested: x = -7.2 (x axis without title or unit))
B2	–	–	–	–	–	–	0.00556	628000	8.85	–
B3	0.66	28	245	6020	–	–	–	–	–	IC50 (nM), inhibition of FLT3 downregulation on RS4;11 cells (mouse soluble FLT3L): 354 nM; EC50 (mouse FLT3L on CHO cells [10]): 0.11 nM; maximum occupancy (% relative to FLT3-Fc) (mouse FLT3L on CHO cells [10]): 51%; IC50 (nM) against 0.476 nM FLT3L, ERK phosphorylation in CD133+ stem cells [11]: 25 nM
B4	–	–	–	–	–	–	0.00501	228000	22	–
B5	0.19	46	618	2580	1.1	96	–	–	–	binding result [1]: no binding (tested: about 0.3 uM); binding result [2]: no binding (tested: about 0.3 uM); binding result (mouse FLT3L on CHO cells [6]): no binding (tested: x = -7.2 (x axis without title or unit))
B6	–	–	–	–	–	–	0.00084	191000	4.37	–
B7	–	–	–	–	–	–	–	–	–	Kd [12]: 0.17 nM; koff [12]: 0.00018 s⁻¹; kon [12]: 1.09e+06 M⁻¹ s⁻¹; Kd [13]: 0.063 nM; koff [13]: 0.00017 s⁻¹; kon [13]: 2.66e+06 M⁻¹ s⁻¹
B8	–	–	–	–	–	–	–	–	–	Kd [12]: 0.037 nM; koff [12]: 5e-05 s⁻¹; kon [12]: 1.45e+06 M⁻¹ s⁻¹; Kd [13]: 0.0088 nM; koff [13]: 5e-05 s⁻¹; kon [13]: 5.84e+06 M⁻¹ s⁻¹
B9	0.27	33	54.8	3070	1.8	35	–	–	–	IC50 (nM), inhibition of FLT3 downregulation on RS4;11 cells (mouse soluble FLT3L): 1490 nM; EC50 (mouse FLT3L on CHO cells [10]): 0.39 nM; maximum occupancy (% relative to FLT3-Fc) (mouse FLT3L on CHO cells [10]): 16%; IC50 (nM) against 0.476 nM FLT3L, ERK phosphorylation in CD133+ stem cells [11]: 2.4 nM; IC50 (nM) against 0.476 nM FLT3L, MEK phosphorylation in CD133+ stem cells [11]: 93 nM
B10	–	–	–	–	–	–	0.00123	66000	18.7	–
